Data set [1] addresses T1, RPA (heterotrimer RPA1/RPA2/RPA3) (Homo sapiens, UniProt P27694;P15927;P35244 1-616;1-270;1-121). In words: fluorescence polarization.
Data set [2] addresses T1, RPA (heterotrimer RPA1/RPA2/RPA3). The experiment in a line: gel filtration. A general note: Size exclusion chromatography separates by hydrodynamic size, large species first.
For data set [3] the target is unchanged. In words: smFRET.
The target is the same in data set [4]. The experiment in a line: smFRET. The source holds these as a separate data set.
For data set [5] the target is unchanged. In words: smFRET. The source holds these as a separate data set.

T1 sequence (P27694 whole entry, chain 1 of 3): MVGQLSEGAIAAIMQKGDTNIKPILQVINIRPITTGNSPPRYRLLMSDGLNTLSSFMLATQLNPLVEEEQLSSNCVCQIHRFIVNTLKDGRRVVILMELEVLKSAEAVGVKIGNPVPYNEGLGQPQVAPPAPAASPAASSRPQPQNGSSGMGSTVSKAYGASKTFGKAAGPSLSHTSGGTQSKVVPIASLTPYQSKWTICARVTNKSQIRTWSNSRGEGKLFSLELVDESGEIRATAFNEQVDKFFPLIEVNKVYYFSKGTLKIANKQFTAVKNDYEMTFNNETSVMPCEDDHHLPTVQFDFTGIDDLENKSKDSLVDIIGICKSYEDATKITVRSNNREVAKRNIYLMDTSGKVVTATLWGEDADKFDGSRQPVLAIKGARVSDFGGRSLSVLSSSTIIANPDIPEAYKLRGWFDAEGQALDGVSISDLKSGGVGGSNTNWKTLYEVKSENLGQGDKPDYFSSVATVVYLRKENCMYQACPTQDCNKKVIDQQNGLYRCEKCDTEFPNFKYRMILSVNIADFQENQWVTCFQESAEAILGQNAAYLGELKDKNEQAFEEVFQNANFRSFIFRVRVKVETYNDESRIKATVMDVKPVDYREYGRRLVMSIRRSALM
T1 sequence (P15927 whole entry, chain 2 of 3): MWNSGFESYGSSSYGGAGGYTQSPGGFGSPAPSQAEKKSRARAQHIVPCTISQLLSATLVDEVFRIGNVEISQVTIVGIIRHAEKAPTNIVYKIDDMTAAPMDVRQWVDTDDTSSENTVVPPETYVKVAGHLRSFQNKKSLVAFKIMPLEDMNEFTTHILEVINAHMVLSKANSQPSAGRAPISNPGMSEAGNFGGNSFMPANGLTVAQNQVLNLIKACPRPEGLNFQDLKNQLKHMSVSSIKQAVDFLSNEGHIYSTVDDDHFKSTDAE
T1 sequence (P35244 whole entry, chain 3 of 3): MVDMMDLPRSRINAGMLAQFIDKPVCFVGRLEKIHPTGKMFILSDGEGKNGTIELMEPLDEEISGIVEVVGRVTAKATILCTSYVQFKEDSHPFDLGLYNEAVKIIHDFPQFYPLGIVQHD

B1: 3G4L3 (FP substrate) (mixed)
DNA 1: GCGTGGCACCGGTAATAGGAAATAGGAGATTGGGTTAGGGTTAGGGTTAGGGTT
DNA 2: TCCTATTTCCTATTACCGGTGCCACGC
As for B1, the Kd (in general, the concentration at which binding is half-saturated) in data set [1] came out at 6.3 nM.

B2: 3G4L1 (FP substrate) (mixed)
DNA 1: GCGTGGCACCGGTAATAGGAAATAGGAGATTGGGTGGGTGGGTGGGTT
DNA 2: TCCTATTTCCTATTACCGGTGCCACGC
As for B2, the dissociation constant Kd in data set [1] turned out to be 8.6 nM.

B3: 4G4 (mixed)
DNA 1: GCGTGGCACCGGTAATAGGAAATAGGAGATTGGGGTGTGGGGACAGGGGTGTGGGGTT
DNA 2: TCCTATTTCCTATTACCGGTGCCACGC
For the molecule B3, in data set [2], the binding result is listed as “binds”.

B4: 3G4L5 (mixed)
DNA 1: GCGTGGCACCGGTAATAGGAAATAGGAGATTGGGTTTTTGGGTTTTTGGGTTTTTGGGTT
DNA 2: TCCTATTTCCTATTACCGGTGCCACGC
Consider B4, for which the binding result in data set [3] was “binds”.

B5: 27bp4nt (mixed)
DNA 1: GCGTGGCACCGGTAATAGGAAATAGGAGATT
DNA 2: TCCTATTTCCTATTACCGGTGCCACGC
In the case of B5, the binding result in data set [4] is “binds”.

B6: 3G4L4 (mixed)
DNA 1: GCGTGGCACCGGTAATAGGAAATAGGAGATTGGGTTTTGGGTTTTGGGTTTTGGGTT
DNA 2: TCCTATTTCCTATTACCGGTGCCACGC
With B6, the binding result in data set [3] was “binds”.

B7: 3G4L121* (mixed)
DNA 1: GGGTGGGTAGGGTGGGATGTATGACAAGGAAGG
DNA 2: CCTTCCTTGTCATAC
Regarding B7, the binding result in data set [5] was “binds”.

The values are drawn from publication PMC8169993.
